From patent publication US20260117212, “OPTIMIZED ENGINEERED MEGANUCLEASES HAVING SPECIFICITY FOR THE HUMAN T CELL RECEPTOR ALPHA CONSTANT REGION GENE” (Precision BioSciences, Inc., published 2026) come the findings set out here.

Data set [1] has as its target T1, TRC 1-2L.1592 meganuclease (synthetic construct).
T1 chain: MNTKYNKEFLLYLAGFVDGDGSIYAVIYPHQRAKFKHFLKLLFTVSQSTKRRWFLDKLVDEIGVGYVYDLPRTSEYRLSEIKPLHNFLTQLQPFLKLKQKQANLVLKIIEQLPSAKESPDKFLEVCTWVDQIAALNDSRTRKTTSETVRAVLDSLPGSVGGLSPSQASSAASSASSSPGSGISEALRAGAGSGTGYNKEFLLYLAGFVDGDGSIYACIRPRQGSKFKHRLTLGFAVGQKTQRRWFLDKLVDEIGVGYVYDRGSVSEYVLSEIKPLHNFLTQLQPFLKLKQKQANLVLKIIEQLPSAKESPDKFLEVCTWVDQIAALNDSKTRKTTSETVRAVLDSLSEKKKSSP
Nature of the data set: cell_activity; CD3 knockout in primary human T cells; EC90 0.545 ug. As for the experimental part:
(§1) In this study, an apheresis sample was drawn from a healthy, informed, and compensated donor, and the T cells were enriched using the CD3 positive selection kit II in accord with the manufacturer's instructions (Stem Cell Technologies). T cells were prepared for editing by stimulating with ImmunoCult anti-CD3/CD28/CD2 (Stem Cell Technologies) for three days in Xuri medium (GE Healthcare) supplemented with fetal bovine serum to 5% (Gemini Bio) and recombinant human IL-2 to 10 ng/ml (Gibco). Stimulated T cells were harvested and counted (Countess II, ThermoFisher) before electroporation was carried out on the Lonza 4-D NucleoFector using a titrated range of mRNA encoding TRC 1-2L.1592 or TRC 1-2L.2307. The concentrations used for this study were 2, 1, 0.5, 0.25, 0.125, and 0.0625 μg of RNA per 1×10⁶ stimulated T cells. Cells were subsequently cultured as above with IL-2 supplemented to 30 ng/ml.
(§2) Using cell counts and frequency of TRAC-edited CAR+ events, the number of CAR T cells produced using each TRC1-2 variant were calculated and plotted in FIG. 7. GraphPad Prism was used to calculate EC50 and EC90 values for TRC 1-2L.1592 (FIG. 7A), and TRC 1-2L.2307 (FIG. 7B).

The target in data set [2] is T2, TRC 1-2L.2307 meganuclease (synthetic construct).
T2 chain: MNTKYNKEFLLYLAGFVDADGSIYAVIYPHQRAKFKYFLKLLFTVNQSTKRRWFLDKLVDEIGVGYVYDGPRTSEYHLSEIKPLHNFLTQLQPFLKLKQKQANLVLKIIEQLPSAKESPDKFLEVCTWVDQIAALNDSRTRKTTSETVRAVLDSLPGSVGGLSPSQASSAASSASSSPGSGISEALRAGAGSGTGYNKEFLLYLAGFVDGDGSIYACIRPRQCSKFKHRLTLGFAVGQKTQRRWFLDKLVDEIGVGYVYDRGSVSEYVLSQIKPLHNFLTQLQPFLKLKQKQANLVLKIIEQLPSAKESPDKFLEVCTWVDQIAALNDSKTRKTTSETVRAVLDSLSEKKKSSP
Nature of the data set: cell_activity; CD3 knockout in primary human T cells; EC90 0.354 ug. The following applies: tags: N-terminal SV40 NLS (mRNA delivered). As for the experimental part: as §1, §2

B1: TRC 1-2 recognition sequence (dsDNA)
DNA 1: TGGCCTGGAGCAACAAATCTGA
DNA 2: TCAGATTTGTTGCTCCAGGCCA
Turning to B1, the EC50 in data set [1] came to 0.372 ug mRNA per 1e6 cells; in data set [2], 0.179 ug mRNA per 1e6 cells.
